In paper PMC3589492, “Intersubunit Ionic Interactions Stabilize the Nucleoside Diphosphate Kinase of Mycobacterium tuberculosis” (PLoS ONE, 2013):

Molecular target: the molecule itself
Assay: SEC; Superose 12 column, 50 mM Hepes pH 7.4, 150 mM sodium chloride, 0.4 mL/min, calibrated with molecular weight markers

B1: D93N mutant of the nucleoside diphosphate kinase of Mycobacterium tuberculosis (enzyme)
chain: MTERTLVLIKPDGIERQLIGEIISRIERKGLTIAALQLRTVSAELASQHYAEHEGKPFFGSLLEFITSGPVVAAIVEGTRAIAAVRQLAGGTNPVQAAAPGTIRGDFALETQFNLVHGSDSAESAQREIALWFPGA
notes: No tag is mentioned; also called D93N Mt-NDPK
- stoichiometry N: 6
